Patent publication US7951906B2, “Compounds capable of interacting with a cell-surface fibroblast growth factor receptor” (Enkam Pharmaceuticals A/S, priority 2002, dated 2011)
Each block holds one molecule with its values, some of them ahead of it.

Legend:
FGFR1 Ig modules 2, 3 = biological target: T1, FGFR1 Ig modules 2, 3 (Mus musculus, UniProt P16092); experiment: SPR binding to immobilized FGFR Ig modules 2, 3
T1 construct: amino acids 249-365 and 141-365 of FGFR (swissprot p16092), respectively; made in house; host or cells: Drosophila S2 cells
T1 sequence (P16092 141-365): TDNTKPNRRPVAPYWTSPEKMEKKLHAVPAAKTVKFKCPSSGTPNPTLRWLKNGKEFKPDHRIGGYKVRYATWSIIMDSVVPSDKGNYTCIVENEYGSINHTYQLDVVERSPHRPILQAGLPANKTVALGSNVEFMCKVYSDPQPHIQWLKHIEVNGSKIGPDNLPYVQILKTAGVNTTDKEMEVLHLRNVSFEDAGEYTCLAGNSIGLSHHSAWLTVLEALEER
Source text: The NCAM F3 modules 1, 2 (without expression of exons a, AAG), and FGFR1 Ig modules 2, 3 were produced using rat NCAM cDNA and mouse FGFR1 (IIIC iso-form) cDNA. The F3 module 1 and the combined F3 modules 1, 2 consist of […] (SEQ ID NO:173) and amino acids 507-611 and 507-705 of NCAM (swissprot p13596), respectively. […] The FGFR Ig module 2 consists of […] […] The FGFR Ig module 3 and the combined Ig modules 2, 3 consist of […] (SEQ ID NO:174) and amino acids 249-365 and 141-365 of FGFR (swissprot p16092), respectively. […] All the proteins were purified by affinity chromatography using Ni2^+−NTA resin (Qiagen, USA) and/or ion exchange chromatography and gel filtration. ^15N-labelled F3 module 2 was produced as described (Thomsen et al., 1996). The NCAM Ig modules 1, 2 and 3 (RV and amino acids 20-308 of rat NCAM, swissprot p13596) was produced as described (Soroka et al., 2002).
The flow-rate was 5 μl/min. […] The FGFR Ig modules 2, 3 were immobilized on a sensor chip CM5 using amine coupling kit (Biosensor AB) as follows: 1) the two halves of the chip (designated Fc1 and Fc2) were activated by 20 μl activation solution; 2) the protein was immobilized on Fc1 using 12 μl 20 μg/ml protein in 10 mM sodium phosphate buffer pH 6.0; 3) Fc1 and Fc2 were blocked by 35 μl blocking solution. […] The resulting curve was used for analysis.

hippocampal neurons = experiment: Neurite outgrowth from hippocampal neurons; assay type: cell-based, rat; conditions: for neurite outgrowth in dose-response study: neurite length versus concentration
Protocol: Dissociated neurons from embryonic rat hippocampus (embryonic day 19), prepared as described (Skladchikova et al., 1999), were grown on Permanox plastic (Nunc) for 24 h at a density of 6000 cells/cm^2, at 37° C., 5% CO2 in Neurobasal medium containing 20 mM Hepes, 100 U/ml penicillin, 100 μg/ml streptomycin, 0.4% BSA supplemented with B27 (Gibco BRL) and the below specified compounds. After 24 h, cells were fixed with paraformaldehyde, stained with Coomassie Brilliant Blue R250 and the length of neurites was measured as described (Skladchikova et al, 1999).

[1] = test system: polyclonal antibody raised against the intact FGL-peptide; experiment: Competitive ELISA of immunoreactivity with antibody raised against FGL-peptide; assay type: binding; conditions: rabbit serum
Source text: Antibody specifically recognising an epitope comprising SEQ ID NO: 1 (FGL-peptide) were raised in rabbits according the standard procedure (Gill B M, Barbosa J A, Dinh T Q, Garrod S, O'Connor D T: Chromogranin B: isolation from pheochromocytoma, N-terminal sequence, tissue distribution and secretory vesicle processing. Regul Peptides 33:223-35, 1991). Synthetic FGL-peptide was coupled to a carrier protein, KLH (Keyhole Limpets Hemocyanin). The peptide was mixed with Freunds incomplete adjuvant and the mixture was injected into rabbits. 208 μg peptide was used per immunisation (per rabbit).
Antibodies (serum) were tested for specificity by competitive ELISA using a series FGL-peptide truncated variants according to the protocol described in R. J. Jenny, T. L. Messier, L. A. Ouellette, and W. R. Church, Methods Enzymol. 222, 400 (1993). 100% immunoreactivity was ob-served only with the intact FGL-peptide consisting of SEQ ID NO: 1.

rat FGFR1 (IIIC isoform) = biological target: T2, rat FGFR1 (IIIC isoform) (Rattus norvegicus, UniProt Q04589); experiment: FGFR1 phosphorylation, Assay 2 (HEK293 cells, His-tagged FGFR1); assay type: cell-based; conditions: 20 min, 5 μM F3 module 2, 25 μM monomeric FG loop peptide
T2 construct: expressed in transfected cells; host or cells: HEK293 cells, transient, pcDNA3.1(+)
T2 sequence (Q04589 22-822): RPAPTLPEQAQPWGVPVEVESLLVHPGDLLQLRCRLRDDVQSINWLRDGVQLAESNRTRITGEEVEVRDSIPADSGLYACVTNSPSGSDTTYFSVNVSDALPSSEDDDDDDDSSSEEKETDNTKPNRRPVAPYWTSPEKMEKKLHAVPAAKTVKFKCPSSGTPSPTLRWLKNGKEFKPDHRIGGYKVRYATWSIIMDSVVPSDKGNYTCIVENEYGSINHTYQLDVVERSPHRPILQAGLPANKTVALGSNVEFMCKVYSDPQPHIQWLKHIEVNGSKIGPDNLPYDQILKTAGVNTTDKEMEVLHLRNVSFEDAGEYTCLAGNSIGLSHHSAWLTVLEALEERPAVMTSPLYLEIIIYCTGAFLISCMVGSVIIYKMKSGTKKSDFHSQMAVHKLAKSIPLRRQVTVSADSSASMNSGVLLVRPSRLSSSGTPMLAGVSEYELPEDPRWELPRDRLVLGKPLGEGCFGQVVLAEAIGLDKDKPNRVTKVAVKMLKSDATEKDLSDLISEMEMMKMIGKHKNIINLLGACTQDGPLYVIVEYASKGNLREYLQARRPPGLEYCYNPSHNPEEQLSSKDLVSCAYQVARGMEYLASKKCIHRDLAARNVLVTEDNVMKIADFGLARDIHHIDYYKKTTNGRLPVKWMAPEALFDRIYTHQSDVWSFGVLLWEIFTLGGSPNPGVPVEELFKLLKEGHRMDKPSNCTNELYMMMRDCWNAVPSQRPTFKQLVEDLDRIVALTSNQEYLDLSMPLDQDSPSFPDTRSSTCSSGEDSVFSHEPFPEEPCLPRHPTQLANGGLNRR
Protocol: Assay 2: The cDNA for the rat FGFR1 (IIIC isoform) was cloned by RT-PCR using RNA isolated from the rat PC12 cell line and inserted into a pcDNA3.1(+) plasmid (invitrogen), which allows expression of FGFR1 fused to the N-terminal of hexahistidine. ˜8×10^5 HEK293 cells were cultured for 24 h in 60 mm plates in full medium (DMEM 1965 supplemented with 10% FCS, 100 U/ml penicillin, 100 μg/ml streptomycin and […] Glutamax) and then transfected with 0.2 μg plasmid (with FGFR) using the LipofectAMIN PLUS™ reagent kit according to the manufacturer's instructions (Gibco BRL). Cells were grown for another 24 hrs in full medium, and then shifted to starvation media (DMEM 1965) overnight. FGFR transfected cells were stimulated for 20 min with the specified compounds, lysed in 8M urea, 1 mM orthovanadate (in PBS) and purified from the lysate via the His-tag as follows: The lysate was loaded on Ni^2+/NTA-sepharose (Qiagen), washed with lysis buffer plus 10 mM imidazole, and the FGFR was eluted with lysis buffer plus 250 mM imidazole. The purified FGFR was analysed by immunoblotting using anti-pentahis (Qiagen) or anti-phosphotyrosine (PY20, Transduction Laboratories) antibodies. The bands were visualised by chemilumiscense and the band density was measured using a GeneGnome apparatus (SynGene).

[2] = biological target: interaction between the NCAM F3 modules 1, 2 and the FGFR modules 2, 3 (Rattus norvegicus, UniProt P13596); experiment: biochemical
interaction between the NCAM F3 modules 1, 2 and the FGFR modules 2, 3, sequence (P13596 507-705): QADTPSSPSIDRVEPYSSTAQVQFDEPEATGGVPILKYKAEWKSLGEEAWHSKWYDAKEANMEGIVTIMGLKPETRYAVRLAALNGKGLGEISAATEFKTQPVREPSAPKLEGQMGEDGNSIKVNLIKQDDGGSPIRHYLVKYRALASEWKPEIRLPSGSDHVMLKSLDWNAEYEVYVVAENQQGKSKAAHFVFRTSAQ

human FGFR1 = biological target: T3, human FGFR1 (Homo sapiens, UniProt P11362); experiment: FGFR1 phosphorylation, Assay 1 (TREX-293 cells, StrepII-tagged FGFR1); assay type: cell-based; conditions: 20 min, 5 μM F3 module, 2.5 μM dendrimeric FG loop peptide
T3 construct: expressed in transfected cells; host or cells: TREX-293 cells (Invitrogen), Flp-In system
T3 sequence (P11362 22-822): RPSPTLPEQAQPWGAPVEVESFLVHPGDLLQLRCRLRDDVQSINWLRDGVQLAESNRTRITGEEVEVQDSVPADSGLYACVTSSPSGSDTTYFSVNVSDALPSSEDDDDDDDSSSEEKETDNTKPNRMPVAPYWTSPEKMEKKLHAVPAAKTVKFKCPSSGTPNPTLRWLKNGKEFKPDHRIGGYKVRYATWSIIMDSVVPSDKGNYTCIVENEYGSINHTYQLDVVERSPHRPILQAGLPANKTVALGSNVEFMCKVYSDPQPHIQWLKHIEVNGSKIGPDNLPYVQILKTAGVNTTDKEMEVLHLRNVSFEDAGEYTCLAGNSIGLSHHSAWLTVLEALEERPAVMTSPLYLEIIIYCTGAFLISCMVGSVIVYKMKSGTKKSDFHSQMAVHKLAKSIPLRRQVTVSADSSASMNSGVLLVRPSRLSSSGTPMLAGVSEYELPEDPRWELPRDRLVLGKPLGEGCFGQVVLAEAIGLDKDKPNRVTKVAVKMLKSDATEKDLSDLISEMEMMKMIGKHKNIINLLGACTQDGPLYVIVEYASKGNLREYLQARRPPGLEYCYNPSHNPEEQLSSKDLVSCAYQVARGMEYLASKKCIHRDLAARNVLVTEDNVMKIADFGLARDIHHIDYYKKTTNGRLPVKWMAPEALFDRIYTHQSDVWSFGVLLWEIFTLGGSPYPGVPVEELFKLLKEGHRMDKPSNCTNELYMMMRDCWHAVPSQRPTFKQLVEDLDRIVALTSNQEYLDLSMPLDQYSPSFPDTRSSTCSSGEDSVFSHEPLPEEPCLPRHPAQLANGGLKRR
Protocol: Assay 1: TREX-293 cells (Invitrogen) were stably transfected with human FGFR1 having a C-terminal StrepII-tag (IBA biotech), using the Flp-In system (Invitrogen). For the study of phosphorylation: ˜2×10^7 cells were starved overnight before stimulation for 20 min with the specified compounds. Cells were lysed in PBS with 1% NP-40 and phosphatase inhibitors cocktail set II (Calbiochem). The cleared cell lysates were incubated with 50 μl agarose-coupled anti-phosphotyrosine antibodies (4G10-AC, Upstate Biotechnologies) for 3 hrs at 4° C. Care was taken to calibrate the amount of cells employed, so that considerable increases in phosphorylated FGFR could be detected. The bound protein was washed, eluted using 150 mM phenyl phosphate (Sigma), precipitated by 12% trichloroacetic acid, washed in cold acetone and dissolved in SDS-PAGE sample buffer. Immunoblotting was performed using antibodies against the recombinant StrepII-tag (IBA biotech). For immunoprecipitation: ˜1×10^7 cells were transiently transfected with the 180 kDa NCAM isoform or a control vector. Cells were incubated for 24 h and then starved overnight. After lysis, FGFR was purified on a StrepTactin Minicolumn (IBA Biotech) according to the manufacturer's instructions, and analyzed by immunoblotting with polyclonal antibodies against human NCAM.

FGFR Ig module 2 = biological target: T4, FGFR Ig module 2 (Mus musculus, UniProt P16092); experiment: 15N-HSQC NMR chemical shift changes of NCAM F3 module 2 with FGFR Ig module 2; assay type: binding; conditions: 50 μM 15N-labeled F3 module 2, 1 mM FGFR Ig module 2
T4 sequence (P16092 140-251): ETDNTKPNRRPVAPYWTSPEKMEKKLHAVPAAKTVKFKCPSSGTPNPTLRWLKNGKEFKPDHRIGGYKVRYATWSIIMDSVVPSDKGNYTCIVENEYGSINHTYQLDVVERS
Source text: The NCAM F3 modules 1, 2 (without expression of exons a, AAG), and FGFR1 Ig modules 2, 3 were produced using rat NCAM cDNA and mouse FGFR1 (IIIC iso-form) cDNA. The F3 module 1 and the combined F3 modules 1, 2 consist of […] (SEQ ID NO:173) and amino acids 507-611 and 507-705 of NCAM (swissprot p13596), respectively. […] The FGFR Ig module 2 consists of […] […] The FGFR Ig module 3 and the combined Ig modules 2, 3 consist of […] (SEQ ID NO:174) and amino acids 249-365 and 141-365 of FGFR (swissprot p16092), respectively. […]
The following samples were used for the structure determination of the NCAM F3 module 2: 2 mM module in H2O or D2O and 1 mM ^15N-labelled module in H2O. […] The following NMR spectra were recorded and used for assignment: TOCSY in H2O or D2O (45 and 70 ms mixing time), NOESY in H2O or D2O (80 and 200 ms mixing time), DQFCOSY, ^15N-HSQC, ^15N-TOCSY-HSQC (70 ms mixing time), and ^15N-NOESY-HSQC (125 ms mixing time) (Bodenhausen and Ruben, 1980; Braunsweiler and Ernst, 1983; Kumar et al., 1981; Piantini et al., 1982; Zhang et al., 1994). […] All spectra were recorded at 298 K. The assignment of the ^1H and ^15N resonances were performed using the program PRONTO (Kjaer et al., 1994). […]

Molecule: FG loop peptide: peptide corresponding to residues E^72-A^86 of the NCAM F3 module 2 (EVYVVAENQQGKSKA; NCAM Fn III, 2 [Swiss-Prot P13591] FGFR binding motif)
binding to the immobilized FGFR modules (FGFR1 Ig modules 2, 3): cannot be detected
neurite outgrowth in dose-response study (hippocampal neurons; hippocampal neurons): induced neurite outgrowth with a bell-shaped curve
immunoreactivity [1]: 100%
increase of FGFR phosphorylation compared to control cells (rat FGFR1 (IIIC isoform)): ~100%

Ki [2]: 370 ± 50 µM
Molecule: Nc1ncnc2c1ncn2[C@@H]1O[C@H](COP(=O)(O)OP(=O)(O)OP(=O)(O)O)[C@@H](O)[C@H]1O [ATP, adenosine triphosphate, reference compound]
inhibition of the neuritogenic effect induced by the F3 module 2 (hippocampal neurons; 5 μM F3 module, ATP or AMP-PCP 0.4, 1.0 mM): substantially reduced
inhibition of the neuritogenic effect induced by the FG loop peptide (hippocampal neurons; 50 μM peptide, ATP or AMP-PCP 0.4, 1.0 mM): completely inhibited

FGFR phosphorylation compared to the non-stimulated cells (human FGFR1): substantially increase
increase of FGFR phosphorylation compared to control cells (rat FGFR1 (IIIC isoform)): approx. 150%
changes of the chemical shifts in the presence of the Ig module 2 (FGFR Ig module 2): No significant changes
B1: NCAM F3 module 2: recombinant protein: AG and amino acids 612-705 of rat NCAM (swissprot p13596) (protein)
chain: AGPSAPKLEGQMGEDGNSIKVNLIKQDDGGSPIRHYLVKYRALASEWKPEIRLPSGSDHVMLKSLDWNAEYEVYVVAENQQGKSKAAHFVFRTSAQ
stimulation of neurite outgrowth / length of neurites (hippocampal neurons; hippocampal neurons, 24 h, 5 μM F3 module 2): substantially increased
neurite outgrowth in dose-response study (hippocampal neurons; hippocampal neurons): induced neurite outgrowth with a bell-shaped curve
